Results reported in patent publication US20070254313A1, “Gnal Splice Variant and Uses Thereof” (AstraZeneca AB, priority 2003, published 2007).

Tests used:
Assay in all cases: cell-based or functional assay
[1] = target: human adenosine A2a receptor (ADORA2A) (human) (UniProt P29274)
[2] = target: human dopamine D1A receptor (human) (UniProt P21728)
[3] = target: human β2 adrenergic receptor (human) (UniProt P07550)

human dopamine D1A receptor (human), sequence (P21728 whole entry): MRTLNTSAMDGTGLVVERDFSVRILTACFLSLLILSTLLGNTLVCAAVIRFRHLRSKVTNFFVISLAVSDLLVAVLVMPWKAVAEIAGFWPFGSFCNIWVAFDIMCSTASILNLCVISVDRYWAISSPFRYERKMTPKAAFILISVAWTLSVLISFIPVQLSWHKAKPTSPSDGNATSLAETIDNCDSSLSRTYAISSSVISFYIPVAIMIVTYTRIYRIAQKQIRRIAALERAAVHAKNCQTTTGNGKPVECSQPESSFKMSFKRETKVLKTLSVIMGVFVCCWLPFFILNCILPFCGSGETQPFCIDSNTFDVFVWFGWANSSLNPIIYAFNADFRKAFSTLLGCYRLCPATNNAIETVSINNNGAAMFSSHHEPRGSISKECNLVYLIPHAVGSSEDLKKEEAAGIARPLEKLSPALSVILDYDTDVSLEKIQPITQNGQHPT
human adenosine A2a receptor (ADORA2A) (human), sequence (P29274 whole entry): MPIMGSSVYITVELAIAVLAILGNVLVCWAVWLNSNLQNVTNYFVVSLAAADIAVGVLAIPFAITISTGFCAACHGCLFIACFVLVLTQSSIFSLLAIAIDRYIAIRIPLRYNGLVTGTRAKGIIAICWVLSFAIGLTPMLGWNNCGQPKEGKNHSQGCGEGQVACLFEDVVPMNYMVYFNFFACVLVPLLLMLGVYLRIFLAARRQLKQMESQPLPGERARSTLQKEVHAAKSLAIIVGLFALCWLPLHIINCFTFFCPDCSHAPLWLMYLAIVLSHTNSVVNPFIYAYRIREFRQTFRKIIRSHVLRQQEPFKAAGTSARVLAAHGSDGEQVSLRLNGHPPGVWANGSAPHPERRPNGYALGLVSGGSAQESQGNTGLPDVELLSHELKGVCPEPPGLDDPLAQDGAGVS

- induction of GTPγS agonist signal over baseline, A2a receptor co-expressed with XLGolf in Sf9 cells [1]: 3 fold
- efficacy (Emax) of dopamine-induced [35S]-GTPγS binding, membranes of Sf9 cells co-expressing DRD1 and XLGolf [2]: 404%
- magnitude of (-)-isoproterenol-induced GTPγS binding above the baseline, membranes of Sf9 cells expressing β2 receptor and XLGolf (% above the baseline) [3]: 700
B1: human XLGolf protein (protein)
chain: MGLCYSLRPLLFGGPGDDPCAASEPPVEDAQPAPAPALAPVRAAARDTARTLLPRGGEGSPACARPKADKPKEKRQRTEQLSAEEREAAKEREAVKEARKVSRGIDRMLRDQKRDLQQTHRLLLLGAGESGKSTIVKQMRILHVNGFNPEEKKQKILDIRKNVKDAIVTIVSAMSTIIPPVPLANPENQFRSDYIKSIAPITDFEYSQEFFDHVKKLWDDEGVKACFERSNEYQLIDCAQYFLERIDSVSLVDYTPTDQDLLRCRVLTSGIFETRFQVDKVNFHMFDVGGQRDERRKWIQCFNDVTAIIYVAACSSYNMVIREDNNTNRLRESLDLFESIWNNRWLRTISIILFLNKQDMLAEKVLAGKSKIEDYFPEYANYTVPEDATPDAGEDPKVTRAKFFIRDLFLRISTATGDGKHYCYPHFTCAVDTENIRRVFNDCRDIIQRMHLKQYELL
